According to patent US20200024330A1:

How the values were obtained:
Experiment in all cases: cell-based or functional assay
[1] = molecular target: HIV-1 93UG077 envelope protein (Env) on pseudovirus (HIV-1)
[2] = molecular target: HIV-1 98CN006 envelope glycoprotein (Env) on pseudovirus (HIV-1)
[3] = molecular target: HIV-1 APV-13 envelope protein (Env) on pseudovirus (HIV-1)
[4] = molecular target: HIV-1 APV-17 envelope protein (Env) on pseudovirus (HIV-1)
[5] = molecular target: HIV-1 Env of isolate MGRM-D-026 (clade D) (HIV-1)
[6] = molecular target: HIV-1 Env of pseudovirus 92BR020, clade B (HIV-1)
[7] = molecular target: HIV-1 Env of pseudovirus MGRM-Chronic-B-002, clade B (HIV-1)
[8] = molecular target: HIV-1 Env of pseudovirus TRJ0.58 (Acute), clade B (HIV-1)
[9] = molecular target: HIV-1 JR-CSF envelope protein (Env) on pseudotyped virus (HIV-1 isolate JR-CSF) (UniProt P20871)
[10] = molecular target: HIV-1 MGRM-F1-018 Env (pseudovirus) (HIV-1)
[11] = molecular target: HIV-1 NL43 envelope protein (Env) on pseudotyped virus (HIV-1 NL43)
[12] = molecular target: HIV-1 Env of isolate 92TH021 (CRF01_AE), on pseudovirus (HIV-1)
[13] = molecular target: HIV-1 Env of isolate MG RM-A-006 (HIV-1)
[14] = molecular target: HIV-1 Env of isolate MGRM-C-020 (HIV-1)
[15] = molecular target: HIV-1 Env of isolate MGRM-F1-014 (subtype F), on pseudovirus (HIV-1)
[16] = molecular target: HIV-1 Env of isolate MGRM-F1-018 (subtype F), on pseudovirus (HIV-1)
[17] = molecular target: HIV-1 Env of isolate MGRM-F1-023 (subtype F), on pseudovirus (HIV-1)
[18] = molecular target: HIV-1 Env of isolate QH0692.42 (HIV-1)
[19] = molecular target: HIV-1 APV17 envelope glycoprotein (Env) on pseudovirus (HIV-1)
[20] = molecular target: HIV-1 Env of isolate 92UG024 (subtype D) (HIV-1)
[21] = molecular target: HIV-1 Env of isolate MG RM-AG-008 (HIV-1)
[22] = molecular target: HIV-1 Env of isolate MG RM-AG-013 (HIV-1)
[23] = molecular target: HIV-1 Env of isolate MGRM-C-004 (pseudovirus) (HIV-1 isolate MGRM-C-004, subtype C)
[24] = molecular target: HIV-1 Env of isolate MGRM-C-006 (pseudovirus) (HIV-1 isolate MGRM-C-006, subtype C)
[25] = molecular target: HIV-1 Env of isolate MGRM-C-009 (pseudovirus) (HIV-1 isolate MGRM-C-009, subtype C)
[26] = molecular target: HIV-1 Env of isolate MGRM-C-026 (pseudovirus) (HIV-1 isolate MGRM-C-026, subtype C)
[27] = molecular target: HIV-1 Env of isolate MGRM-C-028 (pseudovirus) (HIV-1 isolate MGRM-C-028, subtype C)
[28] = molecular target: HIV-1 IAVI-C22 envelope glycoprotein (Env) on pseudovirus (HIV-1)

1495_C14 (PGC14) (antibody)
neutralization IC50 [1]: > 50 µg/mL | IC50 (µg/ml), pseudovirus neutralization [2]: > 50 µg/mL | neutralization IC50 [3]: > 50 µg/mL | neutralization IC50 [4]: > 50 µg/mL | IC50 (µg/ml), pseudovirus neutralization [5]: > 50 µg/mL | IC50 (µg/ml), pseudovirus neutralization [6]: 4 µg/mL | IC50 (µg/ml), pseudovirus neutralization [7]: > 50 µg/mL | IC50 (µg/ml), pseudovirus neutralization [8]: > 50 µg/mL | IC50, pseudovirus neutralization, 1 hour Virus/Ab Incubation [9]: > 50 µg/mL | IC50, pseudovirus neutralization, 18 hour Virus/Ab Incubation [9]: > 50 µg/mL | IC50 (µg/ml), pseudovirus neutralization [10]: > 50 µg/mL | IC50, pseudovirus neutralization, 1 hour Virus/Ab Incubation [11]: 0.35 µg/mL | IC50, pseudovirus neutralization, 18 hour Virus/Ab Incubation [11]: 0.15 µg/mL

5343_B08 (PGT-135) (antibody)
IC50, single-round pseudovirus neutralization [12]: > 50 µg/mL | neutralization IC50 [13]: > 50 µg/mL | IC50 [14]: > 50 µg/mL | IC50, pseudovirus neutralization [15]: > 50 µg/mL | IC50, pseudovirus neutralization [16]: > 50 µg/mL | IC50, pseudovirus neutralization [17]: 0.088 µg/mL | IC50 [18]: > 50 µg/mL

5123_A06 (PGT-125) (antibody)
IC50 (ug/ml), neutralizing activity [19]: 7.31 µg/mL | neutralization IC50 [19]: 7.31 µg/mL | neutralization IC80 [19]: > 10 µg/mL | neutralization IC90 [19]: > 10 µg/mL | neutralization IC95 [19]: > 10 µg/mL | IC50 (µg/mL), pseudovirus neutralization [20]: > 50 µg/mL | neutralization IC50 [21]: > 50 µg/mL | neutralization IC50 [22]: 0.004 µg/mL | IC50 (µg/mL) neutralization [23]: 1.82 µg/mL | IC50 (µg/mL) neutralization [24]: 0.015 µg/mL | IC50 (µg/mL) neutralization [25]: > 50 µg/mL | IC50 (µg/mL) neutralization [26]: 0.005 µg/mL | IC50 (µg/mL) neutralization [27]: 14 µg/mL

b12 (antibody)
neutralization IC50 [1]: 41.1 µg/mL | IC50 (µg/ml), pseudovirus neutralization [2]: > 50 µg/mL | neutralization IC50 [3]: > 25 µg/mL | neutralization IC50 [4]: > 25 µg/mL | IC50 (µg/ml), pseudovirus neutralization [5]: 1.55 µg/mL | IC50 (µg/ml), pseudovirus neutralization [6]: > 50 µg/mL | IC50 (µg/ml), pseudovirus neutralization [7]: 0.86 µg/mL | IC50 (µg/ml), pseudovirus neutralization [8]: > 50 µg/mL | IC90 (pseudovirus neutralization) [28]: 29.6 µg/mL | IC50 (µg/ml), pseudovirus neutralization [10]: > 50 µg/mL

5141_B17 (PGT-126) (antibody)
IC50 (ug/ml), neutralizing activity [19]: 0.501 µg/mL | IC50 (µg/mL), pseudovirus neutralization [20]: > 50 µg/mL | neutralization IC50 [21]: > 50 µg/mL | neutralization IC50 [22]: 0.008 µg/mL | IC50 (µg/mL) neutralization [23]: 0.033 µg/mL | IC50 (µg/mL) neutralization [24]: 0.014 µg/mL | IC50 (µg/mL) neutralization [25]: > 50 µg/mL | IC50 (µg/mL) neutralization [26]: 0.007 µg/mL | IC50 (µg/mL) neutralization [27]: 0.196 µg/mL

5147_N06 (PGT-130) (antibody)
IC50 (ug/ml), neutralizing activity [19]: > 10 µg/mL | IC50, single-round pseudovirus neutralization [12]: 0.009 µg/mL | neutralization IC50 [13]: > 50 µg/mL | IC50 [14]: > 50 µg/mL | IC50, pseudovirus neutralization [15]: 11.8 µg/mL | IC50, pseudovirus neutralization [16]: > 50 µg/mL | IC50, pseudovirus neutralization [17]: 0.05 µg/mL | IC50 [18]: > 50 µg/mL

4877_D15 (PGT-122) (antibody)
IC50 (ug/ml), neutralizing activity [19]: 0.522 µg/mL | IC50 (µg/mL), pseudovirus neutralization [20]: > 50 µg/mL | neutralization IC50 [21]: > 50 µg/mL | neutralization IC50 [22]: 0.521 µg/mL | IC50 (µg/mL) neutralization [23]: 0.02 µg/mL | IC50 (µg/mL) neutralization [24]: 0.018 µg/mL | IC50 (µg/mL) neutralization [25]: > 50 µg/mL | IC50 (µg/mL) neutralization [26]: 0.006 µg/mL | IC50 (µg/mL) neutralization [27]: 2.22 µg/mL

5114_A19 (PGT-128) (antibody)
IC50, single-round pseudovirus neutralization [12]: 0.01 µg/mL | neutralization IC50 [13]: > 50 µg/mL | IC50 [14]: 5.85 µg/mL | IC50, pseudovirus neutralization [15]: 0.277 µg/mL | IC50, pseudovirus neutralization [16]: 0.023 µg/mL | IC50, pseudovirus neutralization [17]: 0.007 µg/mL | IC50 [18]: 0.029 µg/mL

4858_P08 (PGT-123) (antibody)
IC50 (ug/ml), neutralizing activity [19]: 0.18 µg/mL | IC50, pseudovirus neutralization [19]: 0.18 µg/mL | IC80, pseudovirus neutralization [19]: 0.539 µg/mL | IC90 (pseudovirus neutralization) [19]: 1.01 µg/mL | IC95, pseudovirus neutralization [19]: 1.75 µg/mL | IC50 (µg/mL), pseudovirus neutralization [20]: > 50 µg/mL | neutralization IC50 [21]: 19.2 µg/mL | neutralization IC50 [22]: 3.37 µg/mL | IC50 (µg/mL) neutralization [23]: 0.009 µg/mL | IC50 (µg/mL) neutralization [24]: 0.021 µg/mL | IC50 (µg/mL) neutralization [25]: > 50 µg/mL | IC50 (µg/mL) neutralization [26]: 0.001 µg/mL | IC50 (µg/mL) neutralization [27]: 0.402 µg/mL

2F5 (antibody)
neutralization IC50 [1]: 4.45 µg/mL | IC50 (µg/ml), pseudovirus neutralization [2]: > 50 µg/mL | neutralization IC50 [3]: 2.8 µg/mL | neutralization IC50 [4]: 2 µg/mL | IC50 (µg/ml), pseudovirus neutralization [5]: 4.37 µg/mL | IC50 (µg/ml), pseudovirus neutralization [6]: > 50 µg/mL | IC50 (µg/ml), pseudovirus neutralization [7]: 1.25 µg/mL | IC50 (µg/ml), pseudovirus neutralization [8]: > 50 µg/mL | IC90 (pseudovirus neutralization) [28]: > 50 µg/mL | IC50 (µg/ml), pseudovirus neutralization [10]: 3.91 µg/mL
